Experimental data published in article PMC4860851 (Cell Discovery, 2015).

Experiments:
[1] = molecular target: Recombinant H1 HA with His Tag from Influenza A/Brisbane/59/2007 H1N1; assay: SPR; conditions: read off a plot
[2] = FACS surface staining of BW transfectants; conditions: glycan lost; control: WT Ncr1 zeta
[3] = recognition of fusion proteins by eight anti-Ncr1 mAbs; conditions: glycan lost; control: WT Ncr1 Ig
[4] = full-length expression in HEK 293T (data not shown); conditions: glycan lost; control: WT full-length Ncr1
[5] = FACS, lentiviral expression in IL2-activated human NK cells; conditions: glycan lost; control: WT full-length Ncr1
[6] = molecular target: T1, HA Ig (extracellular part of the HA protein of PR8 influenza fused to human IgG1), biotin-conjugated (influenza A/Puerto Rico/8/34 H1N1 (PR8), UniProt P03452 18-528, biotin); assay: far-Western, overlay or dot blot; conditions: both partners purified
T1 construct: also called biotinylated HA Ig

| Molecule | response ([1]; parent: est. 190) | response ([1]; parent: est. 380) | response ([1]; parent: est. 560) | response ([1]; parent: est. 700) | expression_or_secretion [2] | stability_or_folding [3] | localisation_or_trafficking [4] | expression_or_secretion [5] | binding result [6] |
| --- | --- | --- | --- | --- | --- | --- | --- | --- | --- |
| Ncr1 Ig fusion protein (extracellular part of mouse Ncr1 fused to human IgG1) (from UniProt Q8C567) T222A; T225A | 35 RU | 85 RU | 150 RU | 210 RU | – | – | – | – | – |
| Ncr1: Ncr1 T222A (protein) parent chain: MLPTLTALLCLGLCLSQRINTEKETLPKPIIWAKPSIMVTNGNSVNIWCQGAQSASEYQLYFEGSFFALERPKPSRSMNKVRFFISQMTSHTAGIYTCFYQSGELWSKSSNPLKLVVTGLYDTPNLWVYPRPEVTLGENVTFFCQLKTATSKFFLLKERGSNHIQNKYGNIQAEFPMGPVTRAHRGTYRCFGSYNDYAWSFPSEPVTLLITGGVENSSLAPTDPTSSLDYWEFDLSTNESGLQKDSAFWDHTTQNLIRIGLACIILITLVWLLTEDWLSKRKDHEEANRLTNWECRRRWRMQHYFEEEQRNAISMMELKATPGAL | – | – | – | – | no change | no change | no change | – | – |
| Ncr1: Ncr1 T225A (protein) parent chain: MLPTLTALLCLGLCLSQRINTEKETLPKPIIWAKPSIMVTNGNSVNIWCQGAQSASEYQLYFEGSFFALERPKPSRSMNKVRFFISQMTSHTAGIYTCFYQSGELWSKSSNPLKLVVTGLYDTPNLWVYPRPEVTLGENVTFFCQLKTATSKFFLLKERGSNHIQNKYGNIQAEFPMGPVTRAHRGTYRCFGSYNDYAWSFPSEPVTLLITGGVENSSLAPTDPTSSLDYWEFDLSTNESGLQKDSAFWDHTTQNLIRIGLACIILITLVWLLTEDWLSKRKDHEEANRLTNWECRRRWRMQHYFEEEQRNAISMMELKATPGAL | – | – | – | – | no change | no change | no change | – | – |
| Ncr1: Ncr1 T222 225A (protein) parent chain: MLPTLTALLCLGLCLSQRINTEKETLPKPIIWAKPSIMVTNGNSVNIWCQGAQSASEYQLYFEGSFFALERPKPSRSMNKVRFFISQMTSHTAGIYTCFYQSGELWSKSSNPLKLVVTGLYDTPNLWVYPRPEVTLGENVTFFCQLKTATSKFFLLKERGSNHIQNKYGNIQAEFPMGPVTRAHRGTYRCFGSYNDYAWSFPSEPVTLLITGGVENSSLAPTDPTSSLDYWEFDLSTNESGLQKDSAFWDHTTQNLIRIGLACIILITLVWLLTEDWLSKRKDHEEANRLTNWECRRRWRMQHYFEEEQRNAISMMELKATPGAL | – | – | – | – | no change | no change | no change | no change | – |
| Ncr1: Ncr1 N139 216 238A (protein) parent chain: MLPTLTALLCLGLCLSQRINTEKETLPKPIIWAKPSIMVTNGNSVNIWCQGAQSASEYQLYFEGSFFALERPKPSRSMNKVRFFISQMTSHTAGIYTCFYQSGELWSKSSNPLKLVVTGLYDTPNLWVYPRPEVTLGENVTFFCQLKTATSKFFLLKERGSNHIQNKYGNIQAEFPMGPVTRAHRGTYRCFGSYNDYAWSFPSEPVTLLITGGVENSSLAPTDPTSSLDYWEFDLSTNESGLQKDSAFWDHTTQNLIRIGLACIILITLVWLLTEDWLSKRKDHEEANRLTNWECRRRWRMQHYFEEEQRNAISMMELKATPGAL | – | – | – | – | decreases | no change | decreases | abolishes | – |
| Ncr1 Ig fusion protein (extracellular part of mouse Ncr1 fused to human IgG1) (Fc fusion, UniProt Q8C567 17-255, looked up, Carries N-linked glycans (N139, N216, N238) and putative O-linked glycans (T222, T225); also called WT Ncr1 Ig; WT Ncr1) QRINTEKETLPKPIIWAKPSIMVTNGNSVNIWCQGAQSASEYQLYFEGSFFALERPKPSRSMNKVRFFISQMTSHTAGIYTCFYQSGELWSKSSNPLKLVVTGLYDTPNLWVYPRPEVTLGENVTFFCQLKTATSKFFLLKERGSNHIQNKYGNIQAEFPMGPVTRAHRGTYRCFGSYNDYAWSFPSEPVTLLITGGVENSSLAPTDPTSSLDYWEFDLSTNESGLQKDSAFWDHTTQN | – | – | – | – | – | – | – | – | binds |
